Measurements as given in US20170369545A1 (CENTRE NATIONAL DE LA RECHERCHE SCIENTIFIQUE, published 2017).

Assays:
[1] = target: T1, tyrosine kinase receptor MET on HeLa cells (UniProt P08581 25-1390, limits assumed); assay: cell-based or functional assay
[2] = target: T1, tyrosine kinase receptor MET on HeLa …; assay: cell-based or functional assay; remark: listed apart in the source

T1 sequence (P08581 25-1390 limits assumed): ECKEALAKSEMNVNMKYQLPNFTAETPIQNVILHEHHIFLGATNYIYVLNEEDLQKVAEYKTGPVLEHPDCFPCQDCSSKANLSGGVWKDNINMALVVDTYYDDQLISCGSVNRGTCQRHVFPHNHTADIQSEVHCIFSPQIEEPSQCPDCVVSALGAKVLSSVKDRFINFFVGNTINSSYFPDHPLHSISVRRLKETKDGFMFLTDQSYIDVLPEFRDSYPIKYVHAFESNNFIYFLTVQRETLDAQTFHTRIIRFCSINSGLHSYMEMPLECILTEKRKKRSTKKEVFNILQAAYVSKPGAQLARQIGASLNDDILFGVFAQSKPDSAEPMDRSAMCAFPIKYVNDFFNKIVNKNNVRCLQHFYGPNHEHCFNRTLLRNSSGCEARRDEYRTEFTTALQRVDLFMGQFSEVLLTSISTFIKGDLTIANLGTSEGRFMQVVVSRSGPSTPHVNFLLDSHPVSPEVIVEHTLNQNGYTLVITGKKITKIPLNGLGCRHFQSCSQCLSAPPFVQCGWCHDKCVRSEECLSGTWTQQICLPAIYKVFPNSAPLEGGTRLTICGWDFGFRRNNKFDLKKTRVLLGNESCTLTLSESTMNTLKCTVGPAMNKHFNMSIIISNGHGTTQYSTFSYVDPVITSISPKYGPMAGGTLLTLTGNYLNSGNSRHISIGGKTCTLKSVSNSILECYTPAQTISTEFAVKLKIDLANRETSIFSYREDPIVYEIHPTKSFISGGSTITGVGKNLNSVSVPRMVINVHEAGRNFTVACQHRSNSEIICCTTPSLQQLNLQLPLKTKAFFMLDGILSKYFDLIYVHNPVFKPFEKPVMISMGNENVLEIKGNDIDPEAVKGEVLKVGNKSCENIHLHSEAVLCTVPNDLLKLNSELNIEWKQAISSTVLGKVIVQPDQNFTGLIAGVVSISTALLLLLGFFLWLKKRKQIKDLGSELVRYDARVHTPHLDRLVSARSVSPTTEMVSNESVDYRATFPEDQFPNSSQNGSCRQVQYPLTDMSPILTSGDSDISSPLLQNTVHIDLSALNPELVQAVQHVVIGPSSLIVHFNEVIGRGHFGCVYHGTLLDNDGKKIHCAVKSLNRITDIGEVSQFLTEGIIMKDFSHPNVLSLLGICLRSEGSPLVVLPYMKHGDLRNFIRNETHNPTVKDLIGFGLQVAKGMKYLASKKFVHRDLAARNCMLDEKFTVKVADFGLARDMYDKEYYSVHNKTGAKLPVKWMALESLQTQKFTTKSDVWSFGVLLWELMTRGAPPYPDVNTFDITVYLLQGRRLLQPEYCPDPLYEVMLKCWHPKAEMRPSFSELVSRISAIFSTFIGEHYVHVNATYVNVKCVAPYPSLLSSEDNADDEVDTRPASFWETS

Binder | ERK and Akt phosphorylation in HeLa cells (western blot, ALPHAScreen) [1] | MET phosphorylation in HeLa cells (western blot) [1] | agonist activity against NK1 (ERK and Akt phosphorylation in HeLa cells) [1] | EC50 (read off the curve), Akt phosphorylation (P-AKT) [P-AKT] [2] | EC50 (read off the curve), ERK phosphorylation (P-ERK) [P-ERK] [2]
K1K1 variant 2 (long linker variant) (designed binder) MAIRNCIIGKGRSYKGTVSITKSGIKCQPWSSMIPHEHSFLPSSYRGKDLQENYCRNPRGEEGGPWCFTSNPEVRYEVCDIPQCGGGGSLVPRGSGGGGSCIIGKGRSYKGTVSITKSGIKCQPWSSMIPHEHSFLPSSYRGKDLQENYCRNPRGEEGGPWCFTSNPEVRYEVCDIPQCSEVE | ~100 pM | 100 pM | ≥ 10 times (against NK1) | – | –
K1K1 variant 3 (GS-linker variant) (designed binder) MAIRNCIIGKGRSYKGTVSITKSGIKCQPWSSMIPHEHSFLPSSYRGKDLQENYCRNPRGEEGGPWCFTSNPEVRYEVCDIPQCGSGGCIIGKGRSYKGTVSITKSGIKCQPWSSMIPHEHSFLPSSYRGKDLQENYCRNPRGEEGGPWCFTSNPEVRYEVCDIPQCSEVE | ~100 pM | 100 pM | ≥ 10 times (against NK1) | – | –
K1K1 variant 1 (tagless variant) (designed binder) MAIRNCIIGKGRSYKGTVSITKSGIKCQPWSSMIPHEHSFLPSSYRGKDLQENYCRNPRGEEGGPWCFTSNPEVRYEVCDIPQCSEVECIIGKGRSYKGTVSITKSGIKCQPWSSMIPHEHSFLPSSYRGKDLQENYCRNPRGEEGGPWCFTSNPEVRYEVCDIPQCSEVE | ~100 pM | 100 pM | ≥ 10 times (against NK1) | – | –
HGF/SF-K1K1 (C-terminally tagged K1K1 protein, 6xHis tag) (designed binder) MAIRNCIIGKGRSYKGTVSITKSGIKCQPWSSMIPHEHSFLPSSYRGKDLQENYCRNPRGEEGGPWCFTSNPEVRYEVCDIPQCSEVECIIGKGRSYKGTVSITKSGIKCQPWSSMIPHEHSFLPSSYRGKDLQENYCRNPRGEEGGPWCFTSNPEVRYEVCDIPQCSEVEHHHHHH | ~100 pM | 100 pM | ≥ 10 times (against NK1) | ~0.03 nM | ~0.03 nM
